No end group written: not given here.
What was measured:
[1] = biological target: T1, human FM-3 (human, UniProt Q9HB89 24-426); test: radioligand competition: crude membrane fraction (10 µg) of CHO cells expressing human FM-3, 50 pM [^125I-Tyr^0]-NMS, filtration
T1 sequence: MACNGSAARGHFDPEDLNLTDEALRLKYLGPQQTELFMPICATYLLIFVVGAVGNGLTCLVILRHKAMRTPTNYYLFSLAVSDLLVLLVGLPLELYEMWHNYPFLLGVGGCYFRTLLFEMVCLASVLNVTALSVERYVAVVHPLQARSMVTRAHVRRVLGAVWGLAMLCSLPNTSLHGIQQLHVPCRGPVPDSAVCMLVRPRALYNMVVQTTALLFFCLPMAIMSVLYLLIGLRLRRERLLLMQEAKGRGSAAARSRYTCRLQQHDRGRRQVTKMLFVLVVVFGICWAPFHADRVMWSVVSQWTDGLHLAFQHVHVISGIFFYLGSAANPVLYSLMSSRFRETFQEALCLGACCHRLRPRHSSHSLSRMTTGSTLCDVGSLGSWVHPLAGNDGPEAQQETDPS
Procedure: (§1) The receptor binding test was conducted by an improvement of the Gottschall, et al. method (Gottschall, P. E., et al., Endocrinology, 127, 272, 1990). A crude cell membrane fraction was prepared from human FM-3 or human TGR1-expressed CHO cells. Also, human NMS ([Tyr⁰]-NMS) added with Tyr at the N terminus was radioactively labeled with ¹²⁵I and then purified on HPLC. The crude cell membrane fraction (10 μg) and the radiolabeled peptide (50 pM) were reacted at room temperature for 2 hours in a buffer supplemented with 0.05% CHAPS and 1% BSA in the presence of a competitive peptide. The reaction product was filtered to separate the bound from the unbound radiolabeled peptide. The radioactivity was measured with a TopCount liquid scintillation counter (Packard).

[2] = biological target: T2, human TGR1 (human, UniProt Q9GZQ4 1-415); test: radioligand competition: crude membrane fraction (10 µg) of CHO cells expressing human TGR1, 50 pM [^125I-Tyr^0]-NMS, filtration
Procedure: as §1

[3] = biological target: T2, human TGR1; test: cell-based or functional assay
[4] = biological target: T1, human FM-3; test: cell-based or functional assay

T2 sequence (Q9GZQ4 other isoform, or with tags, fused parts or gaps): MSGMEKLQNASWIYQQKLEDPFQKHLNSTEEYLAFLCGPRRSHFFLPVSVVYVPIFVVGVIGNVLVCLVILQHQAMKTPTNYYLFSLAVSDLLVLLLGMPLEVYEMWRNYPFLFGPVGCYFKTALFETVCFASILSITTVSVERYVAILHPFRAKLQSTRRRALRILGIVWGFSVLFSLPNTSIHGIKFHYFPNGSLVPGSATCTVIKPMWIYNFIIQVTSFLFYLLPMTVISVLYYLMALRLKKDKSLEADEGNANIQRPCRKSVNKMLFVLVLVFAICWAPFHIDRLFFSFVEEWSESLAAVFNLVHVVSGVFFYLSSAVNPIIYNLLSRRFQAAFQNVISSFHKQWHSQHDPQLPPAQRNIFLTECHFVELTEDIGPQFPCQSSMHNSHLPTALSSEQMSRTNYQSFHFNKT

IC50 [1]: 1200 pM
IC50 [2]: 100 pM
intracellular Ca ion level increase (calcium-mobilization assay, FLIPR), EC50 [3]: 91 pM
intracellular Ca ion level increase (calcium-mobilization assay, FLIPR), EC50 [4]: 65 pM
Binder: ILQRGSGTAAVDFTKKDHTATWGRPFFLFRPRN (ends and bridges not checked, also called human NMS; NMS) [human neuromedin S]

— US20080124335A1 (NATIONAL CEREBRAL AND CARDIOVASCULAR CENTER, published 2008)
